Data on five molecules can be found in US20250136677A1 (ZOETIS SERVICES, published 2025).

The target in assay [1] is T1, canine IL-31 protein (Canine_IL31) (canine).
T1 chain: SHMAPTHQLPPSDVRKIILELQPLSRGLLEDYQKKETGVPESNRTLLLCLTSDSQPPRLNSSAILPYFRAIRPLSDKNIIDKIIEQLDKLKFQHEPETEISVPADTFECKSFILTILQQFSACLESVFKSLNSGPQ

Assay [2] has as its target T2, wildtype feline IL-31 protein (Feline_IL31_wildtype) (feline).
T2 chain: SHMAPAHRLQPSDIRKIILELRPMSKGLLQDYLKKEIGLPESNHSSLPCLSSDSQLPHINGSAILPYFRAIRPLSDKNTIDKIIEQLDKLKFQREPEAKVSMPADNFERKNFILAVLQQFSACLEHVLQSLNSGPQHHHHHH
Kind of assay: cell-based or functional assay.

Assay [3] deals with T1, canine IL-31 protein (Canine_IL31). Kind of assay: cell-based or functional assay.
Assay [4] deals with T2, wildtype feline IL-31 protein …. Nature of the assay: cell-based or functional assay.
Assay [5] has as its target T1, canine IL-31 protein (Canine_IL31). Kind of assay: SPR (Biacore), IL-31 on chip, 1:1 fit.
Assay [6] deals with T2, wildtype feline IL-31 protein …. Kind of assay: SPR (Biacore), IL-31 on chip, 1:1 fit. The essentials: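 IL-31 was amine-coupled (NHS/EDC) to the chip at 5 μg/mL and quenched with ethanolamine, and candidate mAbs were flowed over it as analytes. Binding curves were fitted to a 1:1 model.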
In general terms: Surface plasmon resonance follows binding to a sensor surface in real time, without labels.

The target of a further assay is T3, human IL-31 (human, UniProt Q6EBC2 24-164).
T3 sequence: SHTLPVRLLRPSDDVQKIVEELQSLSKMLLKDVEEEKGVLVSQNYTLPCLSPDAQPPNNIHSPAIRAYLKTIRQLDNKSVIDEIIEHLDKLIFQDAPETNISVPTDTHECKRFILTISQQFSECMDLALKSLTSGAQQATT
Kind of assay: SPR (Biacore), IL-31 surface, single antibody concentration. Here is the method:
(§1) For the indirect ELISA method, antibody binding to wildtype and feline IL-31 15H05 mutant proteins was assessed. All nine canine monoclonal antibodies (ZIL1, ZIL8, ZIL8, ZIL11, ZIL69, ZIL94, ZIL154, ZIL159, and ZIL171) were capable of binding to wildtype feline IL-31 and binding was impacted by mutations in the mAb 15H05 epitope region confirming the correct binding phenotype determined during the initial screening used to identify them. In comparison, the 11E12 antibody bound to the wild-type feline IL-31 and its binding was not impacted by the mutations in the 15H05 epitope region as evidenced by the data in FIG. 4. To confirm binding, biacore analysis was performed using canine, feline, equine, human, feline 15H05 mutant, and feline 11E12 mutant IL-31 proteins as surfaces and a single test concentration of antibody. Similar to ELISA observations, all antibodies tested bound to wildtype feline IL-31. In agreement with the data described above in this section, mouse antibodies 11E12 and 15H05 both bound to canine and feline IL-31 surfaces. Three additional antibodies where shown to have this dual binding property, ZIL69 (partial canine binding), ZIL94, and ZIL159. From this group of nine fully canine antibodies, only ZIL1 and ZIL9 cross-reacted with equine IL-31. Of note, antibody 15H05 was the only one of all assayed herein that bound to canine, feline, and equine IL-31 indicating some level of epitope conservation across the three species. In contrast, none of the antibodies described herein bound to human IL-31. Additional biacore surfaces were used to verify ELISA observations showing differential binding of antibodies to wildtype feline IL-31 and two proteins with mutations in the 15H05 (15H05 mutant) or 11E12 (11E12 mutant) epitopes.

Assay [7] has as its target T4, equine IL-31 protein (Equine_IL31) (equine).
T4 construct: Recombinant equine IL-31
T4 chain: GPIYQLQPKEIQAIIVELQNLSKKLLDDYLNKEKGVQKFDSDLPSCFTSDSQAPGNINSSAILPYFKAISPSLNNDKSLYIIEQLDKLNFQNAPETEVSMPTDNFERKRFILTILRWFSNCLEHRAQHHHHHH
The assay is described as above. On the procedure:
as §1

Assay [8] deals with T5, mutant feline IL-31 15H05 protein (Feline_IL31_15H05_mutant) (feline).
T5 construct: also called feline 15H05 mutant; 15H05 IL-31 mutant
T5 chain: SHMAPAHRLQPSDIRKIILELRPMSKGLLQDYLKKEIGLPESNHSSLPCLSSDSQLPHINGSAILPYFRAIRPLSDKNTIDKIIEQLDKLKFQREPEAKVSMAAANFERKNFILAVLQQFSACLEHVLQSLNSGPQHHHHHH
Nature of the assay: indirect ELISA, IL-31 protein coated. Here is the method: as §1, with “epitopes. […] In agreement with the ELISA results, all fully canine antibodies were impacted by the 15H05 mutation with the exception of ZIL94, ZIL154, and ZIL171 (partially affected). Differing results can be attributed to differences in the two assay methodologies.” for “epitopes.”
(In an ELISA, binding on a coated surface is turned into a signal by an enzyme label.)

Assay [9] concerns the target T2, wildtype feline IL-31 protein …. Kind of assay: indirect ELISA, IL-31 protein coated. On the procedure:
as §1, with “epitopes. […] In agreement with the ELISA results, all fully canine antibodies were impacted by the 15H05 mutation with the exception of ZIL94, ZIL154, and ZIL171 (partially affected). Differing results can be attributed to differences in the two assay methodologies.” for “epitopes.”

B1: 15H05 mouse:canine chimera (antibody)
heavy: QVQLQQSAAELARPGASVKMSCKTSGYTFTSYTIHWIKQRPGQGLEWIGNINPTSGYTENNQRFKDKTTLTVDRSSNTAYLQLHSLTSEDSAVYFCARWGFKYDGEWSFDVWGAGTTVTVSSASTTAPSVFPLAPSCGSTSGSTVALACLVSGYFPEPVTVSWNSGSLTSGVHTFPSVLQSSGLYSLSSMVTVPSSRWPSETFTCNVAHPASKTKVDKPVPKRENGRVPRPPDCPKCPAPEMLGGPSVFIFPPKPKDTLLIARTPEVTCVVVDLDPEDPEVQISWFVDGKQMQTAKTQPREEQFNGTYRVVSVLPIGHQDWLKGKQFTCKVNNKALPSPIERTISKARGQAHQPSVYVLPPSREELSKNTVSLTCLIKDFFPPDIDVEWQSNGQQEPESKYRTTPPQLDEDGSYFLYSKLSVDKSRWQRGDTFICAVMHEALHNHYTQESLSHSPGK
light: DIQMNQSPSSLSASLGDTITVTCRASQGISIWLSWYQQKPGNIPKVLINKASNLHIGVPPRFSGSGSGTHFTLTITSLQPEDIATYYCLQSQTYPLTFGGGTKLEINRNDAQPAVYLFQPSPDQLHTGSASVVCLLNSFYPKDINVKWKVDGVIQDTGIQESVTEQDKDSTYSLSSTLTMSSTEYLSHELYSCEITHKSLPSTLIKSFQRSEC
With B1, the IC50, inhibition of canine IL-31-induced STAT3 phosphorylation, canine DH82 cells in [1] was found to be 12.7 µg/mL. Besides, in assay [2], the “IC50, feline IL-31 signaling on the canine DH82 cell line (pSTAT3)” value was determined as 0.71 µg/ml. The molecule also displayed an IC50 against canine IL-31 (pSTAT3; cell type not stated for this pair of values) in assay [3] of 12.5 µg/ml. Besides, the “IC50, inhibition of feline IL-31-induced STAT3 phosphorylation, feline FCWF4 cells” value (shortened to “IC50, inhibition … feline FCWF4 cells”) in [4] turned out to be 3.11 µg/mL.

B2: mouse anti IL-31 antibody 11E12 (antibody, V domains shown)
VH: QVQLQQSGAELVKPGASVKLSCKASGYTFKYYDINWVRQRPEQGLEWIGWIFPGDGGTKYNETFKGKATLTTDKSSSTAYMQLSRLTSEDSAVYFCARGGTSVIRDAMDYWGQGTSVTVSS
VL: DIVLTQSPASLAVSLGQRATISCRASESVDNYGISFMHWYQQKPGQPPKLLIYRASNLESGIPARFSGSGSRTDFTLTINPVETDDVATYYCQQSNKDPLTFGAGTKLELK
notes: Mouse monoclonal comparison antibody; also called MU-11E12; mouse 11E12
For B2, in [5], the Kd (commonly a measure of binding affinity in units of concentration) stood at 0.763 pM; the koff (as a rule, the first-order rate constant of dissociation) came to 4.8e-07 s⁻¹; the kon (as a rule, the second-order rate constant of association) worked out at 629000 M⁻¹ s⁻¹. In assay [6], this molecule had a Kd of 738 pM, a koff of 0.000123 s⁻¹ and a kon of 167000 M⁻¹ s⁻¹. In the assay with human IL-31, the binding result is listed as “no binding”. In assay [7], the binding result is given as “no binding”. In addition, the “ELISA OD” value in assay [8] worked out at 1.33 OD. In assay [9], the “ELISA OD” value is 1.15 OD. Besides, in assay [4], the “IC50, inhibition of feline IL-31-induced STAT3 phosphorylation, canine DH82 cells” value was found to be 2.47 µg/mL and the “IC50, inhibition … feline FCWF4 cells” value came out at 2.01 µg/mL.

B3: Feline 11E12 1.1 (antibody, V domains shown)
VH: QVLLVQSGAEVKKPGASVKIFCKASGYSFTYYDINWLRQAPEQGLEWMGWIFPGDGGTKYNETFKGRLTLTADTSTNTVYMELSSLRSADTAMYYCARGGTSVIRDAMDYWGQGALVTVSS
VL: EIQMTQSPSSLSASPGDRVTITCRASESVDNYGISFMHWYQQKPGKVPKLLIYRASNLESGVPSRFSGSGSGTDFTLTISSLEPEDAATYYCQQSNKDPLTFGQGT
notes: Variable chains were subcloned into plasmids with 'the respective feline heavy or kappa constant region'; Made in HEK 293 cells; also called Felinized 11E12 1.1; felinized 11E12
On to B3, for which, in assay [5], the koff turned out to be 0.000141 s⁻¹ and the kon is 185000 M⁻¹ s⁻¹. In assay [6], the Kd came to 22200 pM, the koff came out at 0.000444 s⁻¹ and the kon was 20000 M⁻¹ s⁻¹. The “potency against feline IL-31 in the feline FCWF assay (pSTAT3)” value in [2] is roughly 2 fold.

B4: mouse:feline 15H05 chimera (antibody)
heavy: QVQLQQSAAELARPGASVKMSCKTSGYTFTSYTIHWIKQRPGQGLEWIGNINPTSGYTENNQRFKDKTTLTVDRSSNTAYLQLHSLTSEDSAVYFCARWGFKYDGEWSFDVWGAGTTVTVSSASTTAPSVFPLAPSCGTTSGATVALACLVLGYFPEPVTVSWNSGALTSGVHTFPAVLQASGLYSLSSMVTVPSSRWLSDTFTCNVAHPPSNTKVDKTVRKTDHPPGPKPCDCPKCPPPEAAGAPSIFIFPPKPKDTLSISRTPEVTCLVVDLGPDDSDVQITWFVDNTQVYTAKTSPREEQFNSTYRVVSVLPILHQDWLKGKEFKCKVNSKSLPSPIERTISKAKGQPHEPQVYVLPPAQEELSRNKVSVTCLIKSFHPPDIAVEWEITGQPEPENNYRTTPPQLDSDGTYFVYSKLSVDRSHWQRGNTYTCSVSHEALHSHHTQKSLTQSPGK
light: DIQMNQSPSSLSASLGDTITVTCRASQGISIWLSWYQQKPGNIPKVLINKASNLHIGVPPRFSGSGSGTHFTLTITSLQPEDIATYYCLQSQTYPLTFGGGTKLEINRSDAQPSVFLFQPSLDELHTGSASIVCILNDFYPKEVNVKWKVDGVVQNKGIQESTTEQNSKDSTYSLSSTLTMSSTEYQSHEKFSCEVTHKSLASTLVKSFQRSECQRE
notes: Mouse variable regions on feline IgG constant regions; made in HEK 293 cells; also called 15H05 mouse feline chimera
Turning to B4, in assay [5], the Kd worked out at 12.9 pM, the koff amounted to 1.62e-07 s⁻¹ and the kon amounted to 12600 M⁻¹ s⁻¹. The “IC50 against feline IL-31 induced pSTAT3 signaling in feline FCWF4 cells, relative to the mouse:feline 11E12 chimera” value in assay [2] is roughly 2 fold. In addition, the IC50 against canine IL-31 (pSTAT3; cell type not stated for this pair of values) in assay [3] worked out at 28.6 µg/ml. In addition, in assay [4], the “IC50, inhibition of feline IL-31-induced STAT3 phosphorylation, canine DH82 cells” value came out at 5.59 µg/mL and the “IC50, inhibition … feline FCWF4 cells” value worked out at 3.25 µg/mL.

B5: ZIL94 (recombinant fully canine antibody) (antibody, V domains shown)
VH: EVQLVDSGGDLVKPGGSLRLSCVASGFTFSTYFMSWVRQAPGRGLQWVALISSDGSGTYYADAVKGRFTISRDNAKNTLYLQMNSLRAEDTAMYYCAIFWRAFNDWGQGTLVTVSS
VL: QTVVIQEPSLSVSPGGTVTLTCGLNSGSVSTSNYPGWYQQTRGRTPRTIIYDTGSRPSGVPNRFSGSISGNKAALTITGAQPEDEADYYCSLYTDSDILVFGGGTHLTVLR
notes: also called CAN-ZIL94
Consider B5, for which the binding result in assay [7] is “no binding”. The “ELISA OD” value in [8] stood at 1.3 OD; in assay [9] it was 1.67 OD.
